From patent US20070160576A1, “IL-17A/F heterologous polypeptides and therapeutic uses thereof” (Genentech, Inc., priority 2001, published 2007)

B1: PRO21175 (IL-17D ligand) (ligand, UniProt Q8TAD2 16-202, looked up)
chain: AGAPRAGRRPARPRGCADRPEELLEQLYGRLAAGVLSAFHHTLQLGPREQARNASCPAGGRPADRRFRPPTNLRSVSPWAYRISYDPARYPRYLPEAYCLCRGCLTGLFGEEDVRFRSAPVYMPTVVLRRTPACAGGRSVYTEAYVTIPVGCTCVPEPEKDADSINSSIDKQGAKLLLGPNDAPAGP
B2: IL-17F: human IL-17F ligand, SEQ ID NO:4 (protein, listed as Homo sapiens)
chain: MTVKTLHGPAMVKYLLLSILGLAFLSEAAARKIPKVGHTFFQKPESCPPVPGGSMKLDIGIINENQRVSMSRNIESRSTSPWNYTVTWDPNRYPSEVVQAQCRNLGCINAQGKEDISMNSVPIQQETLVVRRKHQGCSVSFQLEKVLVTVGCTCVTPVIHHVQ

Assays:
[1] = target: T1, human IL-17 receptor (IL-17R, PRO1) as tested in the receptor/ligand screen (human, UniProt Q96F46 33-320, limits assumed); assay: receptor/ligand screen, FIG. 14
T1 construct: also called IL-7R (as misprinted)
From the text: A PRO polypeptide of the present invention suspected of being a ligand for a receptor is expressed as a fusion protein containing the Fc domain of human IgG (an immunoadhesin). Receptor-ligand binding is detected by allowing interaction of the immunoadhesin polypeptide with cells (e.g. Cos cells) expressing candidate PRO polypeptide receptors and visualization of bound immunoadhesin with fluorescent reagents directed toward the Fc fusion domain and examination by microscope. Cells expressing candidate receptors are produced by transient transfection, in parallel, of defined subsets of a library of cDNA expression vectors encoding PRO polypeptides that may function as receptor molecules. Cells are then incubated for 1 hour in the presence of the PRO polypeptide immunoadhesin being tested for possible receptor binding. The cells are then washed and fixed with paraformaldehyde. The cells are then incubated with fluorescent conjugated antibody directed against the Fc portion of the PRO polypeptide immunoadhesin (e.g. FITC conjugated goat anti-human-Fc antibody). The cells are then washed again and examined by microscope. A positive interaction is judged by the presence of fluorescent labeling of cells transfected with cDNA encoding a particular PRO polypeptide receptor or pool of receptors and an absence of similar fluorescent labeling of similarly prepared cells that have been transfected with other cDNA or pools of cDNA. If a defined pool of cDNA expression vectors is judged to be positive for interaction with a PRO polypeptide immunoadhesin, the individual cDNA species that comprise the pool are tested individually (the pool is “broken down”) to determine the specific cDNA that encodes a receptor able to interact with the PRO polypeptide immunoadhesin.
In another embodiment of this assay, an epitope-tagged potential ligand PRO polypeptide (e.g., 8 histidine “His” tag) is allowed to interact with a panel of potential receptor PRO polypeptide molecules that have been expressed as fusions with the Fc domain of human IgG (immunoadhesins). Following a 1 hour co-incubation with the epitope tagged PRO polypeptide, the candidate receptors are each immunoprecipitated with protein A beads and the beads are washed. Potential ligand interaction is determined by Western blot analysis of the immunoprecipitated complexes with antibody directed towards the epitope tag.

TK-10 cells = assay: IL-8 and IL-6 production in TK-10 cells (ELISA of conditioned media); type: cell-based, human; conditions: TK-10 cells, 24 hours, IL-8 ELISA
Experimental: Fractions were tested by incubation with TK-10 cells for 24 hours (0.033 microliters fraction/ml of cell culture media). Conditioned media was then collected and IL-8 and IL-6 concentration measurements were performed on each fraction by ELISA. […] Gels, blots, amino acid sequence and activity assays were run on this fraction (FIG. 3). Alternatively, fraction 31 and the remaining volume of fraction 32, from the HiLoad S Sepharose run were pooled and dialyzed against Buffer A for eight hours using a 10 kD cutoff membrane and passed through a 0.2 micron filter. […] Fractions 26-43 were assayed and protein concentrations were determined by amino acid analysis. Pure IL-17A/F was identified in fractions 31-33 as a single protein with apparent molecular mass of 30-35 kD. The concentrations of fractions 31, 32 and 33 were 0.258, 0.359 and 0.291 mg/ml respectively.
IL-17A/F, IL-17 and IL-17F were incubated with TK-10 cells at the indicated concentrations for 24 hours.
TK-10 conditioned media was collected and analyzed by IL-8 ELISA and IL-6 ELISA.

Row | Molecule | binding result [1] | IL-8 production (TK-10 cells)
1 | B1 | no binding | 
2 | B2 |  | production of IL-8
